From US20100143940A1, “(3R)-HYDROXYACYL-ACP DEHYDRATASE ENZYMES USED IN THE BIOSYNTHESIS OF MYCOLIC ACIDS AND USE OF SAME FOR SCREENING ANTIBIOTICS” (priority 2007, published 2010)

Biological target: T1, 2-trans-octenoyl-ACP, P0A6A8
T1 chain: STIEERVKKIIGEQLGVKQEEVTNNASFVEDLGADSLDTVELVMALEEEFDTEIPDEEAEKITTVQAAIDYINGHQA

B1: Rv0636 protein of M. tuberculosis H37Rv fused with the N-terminal polyhistidine tag (protein)
chain: HHHHHHMALREFSSVKVGDQLPEKTYPLTRQDLVNYAGVSGDLNPIHWDDEIAKVVGLDTAIAHGMLTMGIGGGYVTSWVGDPGAVTEYNVRFTAVVPVPNDGKGAELVFNGRVKSVDPESKSVTIALTATTGGKKIFGRAIASAKLA
With B1 the “specific activity (hydration followed at 263 nm), 2 µM substrate, 311 nM enzyme” value was “no activity of the Rv0636 homodimer could be detected in the presence of octenoyl-ACP”.
